The subject of this data set is tetA promoter (PtetA)-lacZ reporter in E. coli KM3. In kind it is cell-based. The settings on record: for relative β-galactosidase activity, inducer atc: anhydrotetracycline 0.4 μM; for relative β-galactosidase activity, inducer Ci: chlorimuron 20 μg/ml (20 ppm); for relative β-galactosidase activity, inducer Ns: nicosulfuron 20 μg/ml (20 ppm); for relative β-galactosidase activity, inducer None / relative β-galactosidase activity, No inducer: no inducer; for relative β-galactosidase activity, inducer Rs: rimsulfuron 20 μg/ml (20 ppm); for relative β-galactosidase activity, inducer Ts: thifensulfuron 20 μg/ml (20 ppm); for relative β-galactosidase activity, inducer Tb: tribenuron 20 μg/ml (20 ppm); for response to thifensulfuron-methyl (Ts), blue colony color: 20 μg/ml Ts, 96-well re-test, FIG. 3.

[1] abbreviates: Table 4, chlorsulfuron 20 μg/ml (20 ppm), 48 hrs at 30° C.
[2] abbreviates: Table 4, ethametsulfuron 20 μg/ml (20 ppm), 48 hrs at 30° C.
Where [3] appears, read: Table 4, sulfometuron 20 μg/ml (20 ppm), 48 hrs at 30° C.
[4] abbreviates: Table 10, chlorsulfuron 2 ppm, 48 hours at 30° C.
Setting [5] is: Table 10, metsulfuron 2 ppm, 48 hours at 30° C.
Where [6] appears, read: Table 10, sulfometuron 2 ppm, 48 hours at 30° C.
[7] abbreviates: Table 4, metsulfuron 20 μg/ml (20 ppm), 48 hrs at 30° C.

Where two headings read alike, the source gives them in different places.

B1: L1-29: library L1 hit, sulfonylurea-responsive TetR(B) variant, SEQ ID NO: 10 (protein)
chain: MGSRLDKSKVINSALELLNEVGIEGLTTRKLAQKLGVEQPTLYWHVKNKRALLDALAIEMMDRHQTHFCPLEGESWQDFLRNTAKSMRCALLSHRDGAKVWLGTRWTEKQYETPENMLAFLCQQGFSLENALYAWSAVCNFTLGCVLSDQERQVAKEERETPTTDSMPPLLRQAWELSDHQGAEPAFLFGLELIICGLEKQLKCESGS
modifications: Sulfonylurea responsive repressor L1-29
In the case of B1, for the setting “Table 4, 48 hrs at 30° C.”, the “relative β-galactosidase activity, inducer atc” value worked out at 0.0; the “relative β-galactosidase activity, inducer Ci” value was found to be 20.9; the “relative β-galactosidase activity, inducer Ns” value turned out to be 0.1; the “relative β-galactosidase activity, inducer None” value worked out at 0.0. Where the note is “Table 4, 48 hrs at 30° C.”, the “relative β-galactosidase activity, inducer Rs” value was 0.1; the “relative β-galactosidase activity, inducer Ts” value is on record as 0.0; the “relative β-galactosidase activity, inducer Tb” value came out at 0.3. Under setting [1], the “relative β-galactosidase activity, inducer Cs” value was 15.8. Moreover, under setting [2], the “relative β-galactosidase activity, inducer Es” value was determined as 1.7. Further, under setting [3], the “relative β-galactosidase activity, inducer Sm” value is recorded as 2.7. Also, where the note is “Table 8, inducers given as numbers without key”, the Inducer preference is recorded as 9 (weak). In addition, the “relative β-galactosidase activity, inducer Cs” value under setting [4] stood at 0.2. Also, the “relative β-galactosidase activity, inducer Es” value (Table 10, ethametsulfuron 2 ppm, 48 hours at 30° C.) worked out at 0.3. Moreover, under setting [5], the “relative β-galactosidase activity, inducer Ms” value is 0.3. Further, the “relative β-galactosidase activity, No inducer” value (Table 10, 48 hours at 30° C.) turned out to be 0.1. The “relative β-galactosidase activity, inducer Sm” value under setting [6] stood at 0.2.

B2: L1-31: library L1 hit, sulfonylurea-responsive TetR(B) variant (protein)
chain: MGSRLDKSKVINSALELLNEVGIEGLTTRKLAQKLGVEQPTLYWHVKNKRALLDALAIEMLDRHATHFCPLEGESWQDFLRNNAKSMRCALLSHRDGAKVMLGTRATEKQYETVENRLAFLCQQGFSLENALYAVRAVHWFTLGCVLIDQEMQVAKEERETPTTDSMPPLLRQAYELYDHQGAEPAFLFGLELIICGLEKQLKCESGS
modifications: Sulfonylurea responsive repressor L1-31
As for B2, for the setting “Table 4, 48 hrs at 30° C.”, the “relative β-galactosidase activity, inducer atc” value amounted to 0.4; the “relative β-galactosidase activity, inducer Ci” value amounted to 1.1; the “relative β-galactosidase activity, inducer Ns” value was found to be 0.5; the “relative β-galactosidase activity, inducer None” value is given as 0.3. Under “Table 4, 48 hrs at 30° C.”, the “relative β-galactosidase activity, inducer Rs” value was found to be 0.4; the “relative β-galactosidase activity, inducer Ts” value was determined as 0.9; the “relative β-galactosidase activity, inducer Tb” value worked out at 0.1. Also, the “relative β-galactosidase activity, inducer Cs” value under setting [1] is 1.4. Moreover, under setting [2], the “relative β-galactosidase activity, inducer Es” value is reported as 13.7. The “relative β-galactosidase activity, inducer Ms” value under setting [7] worked out at 0.5. Besides, the “relative β-galactosidase activity, inducer Sm” value under setting [3] came out at 0.9.

B3: L1-28: library L1 hit, sulfonylurea-responsive TetR(B) variant (protein)
chain: MGSRLDKSKVINSALELLNEVGIEGLTTRKLAQKLGVEQPTLYWHVKNKRALLDALAIEMLDRHATHFCPLEGESWQDFLRNNAKSMRCALLSHRDGAKVWLGTAWTEKQYETPENVLAFLCQQGFSLENALYASRAVVTFTLGCVLTDQEKQVAKEERETPTTDSMPPLLRQAWELLDHQGAEPAFLFGLELIICGLEKQLKCESGS
modifications: Sulfonylurea responsive repressor L1-28
Take B3: for the setting “Table 4, 48 hrs at 30° C.”, the “relative β-galactosidase activity, inducer atc” value is 0.0; the “relative β-galactosidase activity, inducer Ci” value is on record as 14.6; the “relative β-galactosidase activity, inducer Ns” value turned out to be 0.1; the “relative β-galactosidase activity, inducer None” value worked out at 0.0. Further, for the setting “Table 4, 48 hrs at 30° C.”, the “relative β-galactosidase activity, inducer Rs” value came to 0.2; the “relative β-galactosidase activity, inducer Ts” value turned out to be 0.1; the “relative β-galactosidase activity, inducer Tb” value is reported as 0.3. The “relative β-galactosidase activity, inducer Cs” value under setting [1] was 5.8. Moreover, the “relative β-galactosidase activity, inducer Es” value under setting [2] came out at 0.8. Moreover, under setting [7], the “relative β-galactosidase activity, inducer Ms” value was 18.8. Besides, under setting [3], the “relative β-galactosidase activity, inducer Sm” value stood at 1.1.

B4: L1-24: library L1 hit, sulfonylurea-responsive TetR(B) variant (protein)
chain: MGSRLDKSKVINSALELLNEVGIEGLTTRKLAQKLGVEQPTLYWHVKNKRALLDALAIEMLDRHNTHFCPLEGESWQDFLRNSAKSMRCALLSHRDGAKVLLGTAVTEKQYETTENSLAFLCQQGFSLENALYAIRAVRTFTLGCVLVDQERQVAKEERETPTTDSMPPLLRQAKELLDHQGAEPAFLFGLELIICGLEKQLKCESGS
modifications: Sulfonylurea responsive repressor L1-24
As to B4, for the setting “Table 4, 48 hrs at 30° C.”, the “relative β-galactosidase activity, inducer atc” value amounted to 0.1; the “relative β-galactosidase activity, inducer Ci” value came to 22.1; the “relative β-galactosidase activity, inducer Ns” value is reported as 0.3; the “relative β-galactosidase activity, inducer None” value is listed as 0.1. Also, under “Table 4, 48 hrs at 30° C.”, the “relative β-galactosidase activity, inducer Rs” value is 0.3; the “relative β-galactosidase activity, inducer Ts” value is reported as 0.3; the “relative β-galactosidase activity, inducer Tb” value was found to be 1.6. Moreover, the “relative β-galactosidase activity, inducer Cs” value under setting [1] came out at 3.3. Besides, the “relative β-galactosidase activity, inducer Es” value under setting [2] came out at 0.2. The “relative β-galactosidase activity, inducer Ms” value under setting [7] was 0.4. Further, under setting [3], the “relative β-galactosidase activity, inducer Sm” value is reported as 3.1.

B5: L1-20: library L1 hit, sulfonylurea-responsive TetR(B) variant, SEQ ID NO: 6 (protein)
chain: MGSRLDKSKVINSALELLNEVGIEGLTTRKLAQKLGVEQPTLYWHVKNKRALLDALAIEMMDRHQTHFCPLEGESWQDFLRNNAKSMRCALLSHRDGAKVFLGTAWTEKQYETVENLLAFLCQQGFSLENALYALNAVATFTLGCVLWDQEKQVAKEERETPTTDSMPPLLRQAHELGDHQGAEPAFLFGLELIICGLEKQLKSESGS
modifications: Sulfonylurea responsive repressor L1-20
With B5, the “response to thifensulfuron-methyl (Ts), blue colony color” value (shortened to “response to thifensulfuron-methyl (Ts)”) is given as “most intensely responding”. Also, under “Table 4, 48 hrs at 30° C.”, the “relative β-galactosidase activity, inducer atc” value is 2.0; the “relative β-galactosidase activity, inducer Ci” value turned out to be 13.5; the “relative β-galactosidase activity, inducer Ns” value is given as 1.6; the “relative β-galactosidase activity, inducer None” value is reported as 1.4. In addition, for the setting “Table 4, 48 hrs at 30° C.”, the “relative β-galactosidase activity, inducer Rs” value was determined as 2.0; the “relative β-galactosidase activity, inducer Ts” value turned out to be 2.6; the “relative β-galactosidase activity, inducer Tb” value was determined as 2.6. Under setting [1], the “relative β-galactosidase activity, inducer Cs” value worked out at 22.0. The “relative β-galactosidase activity, inducer Es” value under setting [2] worked out at 15.0. Besides, under setting [7], the “relative β-galactosidase activity, inducer Ms” value came to 12.4. For the same molecule, the “relative β-galactosidase activity, inducer Sm” value under setting [3] came out at 6.0.

B6: L1-2: library L1 hit, sulfonylurea-responsive TetR(B) variant, SEQ ID NO: 3 (protein)
chain: MGSRLDKSKVINSALELLNEVGIEGLTTRKLAQKLGVEQPTLYWHVKNKRALLDALAIEMLDRHATHFCPLEGESWQDFLRNNAKSFRCALLSHRDGAKVCLGTAVTEKQYETMENILAFLCQQGFSLENALYARRAVIAFTLGCVLWDQEYQVAKEERETPTTDSMPPLLRQARELIDHQGAEPAFLFGLELIICGLEKQLKCESGS
modifications: Sulfonylurea responsive repressor L1-02
For B6, the “response to thifensulfuron-methyl (Ts)” value is “most intensely responding”. Moreover, for the setting “Table 4, 48 hrs at 30° C.”, the “relative β-galactosidase activity, inducer atc” value amounted to 1.2; the “relative β-galactosidase activity, inducer Ci” value was determined as 13.6; the “relative β-galactosidase activity, inducer Ns” value came out at 1.3; the “relative β-galactosidase activity, inducer None” value is recorded as 1.0. Also, under “Table 4, 48 hrs at 30° C.”, the “relative β-galactosidase activity, inducer Rs” value is given as 1.3; the “relative β-galactosidase activity, inducer Ts” value is recorded as 1.6; the “relative β-galactosidase activity, inducer Tb” value is recorded as 1.7. Besides, the “relative β-galactosidase activity, inducer Cs” value under setting [1] was determined as 4.1. In addition, under setting [2], the “relative β-galactosidase activity, inducer Es” value is on record as 5.8. Further, the “relative β-galactosidase activity, inducer Ms” value under setting [7] is reported as 1.9. Besides, the “relative β-galactosidase activity, inducer Sm” value under setting [3] amounted to 4.7.

B7: L1-9: library L1 hit, sulfonylurea-responsive TetR(B) variant, parent of L2 and L4 (protein)
chain: MGSRLDKSKVINSALELLNEVGIEGLTTRKLAQKLGVEQPTLYWHVKNKRALLDALAIEMLDRHATHFCPLEGESWQDFLRNNAKSMRCALLSHRDGAKVCLGTGFTEKQYETAENSLAFLCQQGFSLENALYAMQAVCIFTLGCVLLDQELQVAKEERETPTTDSMPPLLRQALELKDHQGAEPAFLFGLELIICGLEKQLKCESGS
modifications: Sulfonylurea responsive repressor L1-09
Consider B7, for which the “response to thifensulfuron-methyl (Ts)” value was “most intensely responding”. Also, under “Table 4, 48 hrs at 30° C.”, the “relative β-galactosidase activity, inducer atc” value is listed as 0.3; the “relative β-galactosidase activity, inducer Ci” value came to 9.8; the “relative β-galactosidase activity, inducer Ns” value worked out at 0.3; the “relative β-galactosidase activity, inducer None” value turned out to be 0.3. For the same molecule, for the setting “Table 4, 48 hrs at 30° C.”, the “relative β-galactosidase activity, inducer Rs” value worked out at 0.4; the “relative β-galactosidase activity, inducer Ts” value came out at 1.1; the “relative β-galactosidase activity, inducer Tb” value is 0.4. In addition, the “relative β-galactosidase activity, inducer Ms” value under setting [7] is given as 1.2. Under setting [3], the “relative β-galactosidase activity, inducer Sm” value amounted to 0.6. In addition, the “relative β-galactosidase activity, inducer Cs” value under setting [4] was 2.2. Besides, the “relative β-galactosidase activity, inducer Ms” value under setting [5] stood at 0.9. In addition, the “relative β-galactosidase activity, No inducer” value (Table 10, 48 hours at 30° C.) is 0.9. Besides, the “relative β-galactosidase activity, inducer Sm” value under setting [6] is 0.9.
